Measurements from article PMC5646864.

T1: Escherichia coli CsdE (Escherichia coli), P0AGF2
T1 chain: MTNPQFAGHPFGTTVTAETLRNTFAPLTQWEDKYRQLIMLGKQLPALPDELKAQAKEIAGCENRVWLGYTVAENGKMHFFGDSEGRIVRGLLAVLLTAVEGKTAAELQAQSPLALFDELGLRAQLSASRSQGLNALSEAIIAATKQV


Key:
Cys61 = Cys61 (UniProt position 61, KEIAGCENRVW); conditions: not stated (reduced thiol implied; discussed for free CsdE); cited from earlier work
[1] = molecular target: T1, Escherichia coli CsdE (Escherichia …); assay: crystal structure; native CsdE at 40 mg/ml in 10 mM Tris-HCl pH 8, 2 mM 2-mercaptoethanol; crystallised in 0.1 M sodium citrate pH 6.5, 20% (w/v) PEG-MME 2000 at 297 K; two monomers in the asymmetric unit joined by a Cys61-Cys61 disulfide bridge; phased by Se-SAD on SeMet crystals; conditions: remark: other sources report otherwise

Row | stoichiometry N [1] | Molecule | pKa (Cys61)
1 | – | Sulfur acceptor protein CsdE (YgdK) (Escherichia coli) | 6.5
2 | 2 | Escherichia coli CsdE, P0AGF2 1-147 (natural protein) MTNPQFAGHPFGTTVTAETLRNTFAPLTQWEDKYRQLIMLGKQLPALPDELKAQAKEIAGCENRVWLGYTVAENGKMHFFGDSEGRIVRGLLAVLLTAVEGKTAAELQAQSPLALFDELGLRAQLSASRSQGLNALSEAIIAATKQV | –
